Molecular target: SARS-CoV-2 spike D614G (pseudovirus) (SARS-CoV-2) (UniProt P0DTC2)
Experiment: cell-based or functional assay

For REGN10987 (antibody), the PSV in HeLa-ACE2 cells IC50 was 0.019 µg/mL.
For REGN10933 (antibody), the PSV in HeLa-ACE2 cells IC50 was 0.009 µg/mL.
